We go through 24 variants from the supplement of paper PMC7125110.

± gives the standard error. Fewer inactive variants are shown than the library holds.

The chains are these.
B1: glmS ribozyme (parent)
chain: AUAAAAGCGCCAGAACUACAGAAAUGUAGUUGACGAGGAGGAGGUUUAUCGAAUUUUCGGCGGAUGCCUCCAAA

Variants of B1 are the subject of one data set. Kind of data set: self-cleavage kobs at 640 uM GlcN6P; higher = faster cleavage; RNA array. The note with it: with glucosamine-6-phosphate. The method in brief:
(§1)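 On sequenced MiSeq chips, barcoded ribozyme variants were made in situ by E. coli RNA polymerase and followed at 37 °C through a hybridised Cy3 probe. Glucosamine-6-phosphate was flowed in at 40 μM to 10 mM in HEPES/KCl/Mg(OAc)2 buffer. Exponential fits to normalised per-tile medians gave kobs, and weighted Michaelis–Menten fits gave kcat and KM.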
Take AUAAAAGGGCUAGAUCUACAGAAAUGUAGUUGACGAGGAGGAGGUUUAUCGAAUUUGCGGCGGAUGCCUCCAAA [C8G C11U A15U U57G]: the “self-cleavage kobs at 640 uM GlcN6P” value was below 1e-05 s⁻¹.
Same read-out and setting: with AUAAAAGUGCCAGAACUACAGAAAUGUAGUUGAGGAGGGGGAGUUUUAUCGAAUUUUCGGCGGAUGCCUCCAAA [C8U C34G A39G G44U] the figure was below 1e-05 s⁻¹; with AUAAAAGCGCCAGAACUACAGAAAUGUAGUUGACGAGGCGGAGGUUUAUCGAAUUCUCGGCGGAUGCCUCCAAA [A39C U56C], 0.00018 ± 3.3e-05 s⁻¹.
On the same count and under the same terms, with AUAAAAGCGCCAGAACUACAGAAAUGUAGUUGACGAGGAGGAGGUUUAUCGAAUUCUCGGCGGCUGCCUCCAAA [U56C A64C] the figure was below 1e-05 s⁻¹; with AUAAAAGCGCCAGAAAUACAGAAAUGUAGUUGACGAGGAGGCGGUUUAUCGAAUUUUCGGCGGAUGCCUCUAAA [C16A A42C C71U], below 1e-05 s⁻¹; with AUAAAAGCGCCAGCCCUACAGAAAUGUAGUUGACGAGGUUGAGGUUUACCGAAUUUUCGGCGGAUGCCUCCAAA [A14C A15C A39U G40U U49C], below 1e-05 s⁻¹.
Still for that read-out and setting: the result for AUAAAAGCGCCAGAACUACAGAAAUGUAGUUGACGAGGAAGAGGAUUAUCGAAUUUUCGGCGGAUGCCUUCAAA [G40A U45A C70U] reads 4.7e-05 ± 2.2e-05 s⁻¹; that for AUAAAAGCGCCAGAACUACAGAAAUGUAGUUGACGAGGUGGAGGUUUAUCGAAUUUUCGGCGGAUGAUUCCAAA [A39U C67A C68U], 3.93e-05 ± 1.2e-05 s⁻¹.
On to AUAAAAGCGGCUGAACUACAGAAAUGUAGUUGACGAGGAGGAGGUUUAUCGAAUUGUCGGCGGAUGCCUCUAAA [C10G A12U U56G C71U], for which the “self-cleavage kobs at 640 uM GlcN6P” value was below 1e-05 s⁻¹.
As for AUAAAAGCGCCAGAACUACAGAAAUGUAGUUGACGAGGAGGAAGUUUAUCGAGUUUUCGUCGGAUGCCUCCAAA [G43A A53G G60U], the “self-cleavage kobs at 640 uM GlcN6P” value is below 1e-05 s⁻¹.
As for AUAAAAGCGCCAGAACUACAGAAAUGUAGGUGACGAGGAGGUGGUUUAUAGAAUUUUCGUCGGAUGCCUCCAAA [U30G A42U C50A G60U], the “self-cleavage kobs at 640 uM GlcN6P” value was below 1e-05 s⁻¹.
As to AUAAAAGCGCCAGAACUACAGAAAUGUAGUUGACAAGGAGGAGGUUUAUCAAAUUUUUGGCGGAUGCCUCCAAA [G35A G51A C58U], the “self-cleavage kobs at 640 uM GlcN6P” value is below 1e-05 s⁻¹.
Same read-out and setting: with AUAAAAGCGCGAGAACUACAGAAAUGUAGUUGACGAGGCGGAGGUUUAUCGAAUUUUCGGCGGAUGCCUCCAAA [C11G A39C] the figure was below 1e-05 s⁻¹; with AUAAAAGCGCCAGAAGUACAGAAAUGUAGUUGACGAGGAGGAGGUUUAUCAAAUUUUCGGCGGUUGCCUCCAAA [C16G G51A A64U], below 1e-05 s⁻¹; with AUAAAAGCGCAAGCACUACAGAAAUGUAGUUGACGAGGAGGAGGUUUAUCGUAUUUUCGGCGGAUGCCUCCAAA [C11A A14C A52U], below 1e-05 s⁻¹.
The same measure, in the same setting: with AUAAACGCGCCAGAACUACAGAAAUGUAGAUGACGAGGAGGAGGUUUAUCGAAUUUUCGGCGGAUGGCUCCAAA [A6C U30A C67G] the figure was below 1e-05 s⁻¹; with AUAAAAGCGCCAUAACUACAGAAAUGUAGUUGACGAUGAAGAGGUUUAUCGAAUUUUCGGCGGAUGCCGCCAAA [G13U G37U G40A U69G], below 1e-05 s⁻¹; with AUAAAAGCGCCAGAGAUACAGAAAUGUAGAUGACGAGGAGGAGGUUUAUCGAAUUUUCGGCGGGUGCCUCCAAA [A15G C16A U30A A64G], 0.000408 ± 0.00011 s⁻¹.
On the same count and under the same terms, with AUAAAAGCGCCAGAACUACAGAAAUGUAGUUGACCAUGAGGAGGUUUAUCGAAUUUUCGGCGGGUGCUUCCAAA [G35C G37U A64G C68U] the figure was below 1e-05 s⁻¹; with AUAAAAGCGCCAGAACUACAGAAAUGUAGUAGACGAGGAGGACGGUUAUCGUAUUUUCGGCGGAUGCCUUCAAA [U31A G43C U45G A52U C70U], below 1e-05 s⁻¹; with AUAAAAGCGGAAGAACUACAGAAAUGUAGUCGACCAGGAGGAGGUUUAUCGAAUUUUCGGCGGAUGCCUGCAAA [C10G C11A U31C G35C C70G], 0.00013 ± 6.3e-05 s⁻¹.
With AUAAAAGCGCCAGAACUACAGAAAUGUAGUUGACGAGGAGGAAGAUUAUCGAUUUUUCGGCCGUUGCCUCCAAA [G43A U45A A53U G62C A64U], the “self-cleavage kobs at 640 uM GlcN6P” value is below 1e-05 s⁻¹.
AUAAAAGCGCAAGAUCUACAGAAAUGUAGUUGACGAGGAGGAGGUUUAUCGAAUUUUCGGCGGCUGCCUCCAAA [C11A A15U A64C]: the “self-cleavage kobs at 640 uM GlcN6P” value is below 1e-05 s⁻¹.
Still for that read-out and setting: the result for AUAAAAGCGCUAGAACUACAGAAAUGUAGUUGACGAGAAGGAGGUUUAUCGAAUUUUCGGCGGAUGGCUCCAAA [C11U G38A C67G] reads 7.1e-05 ± 3.3e-05 s⁻¹.

A further data set covers variants of B1. Kind of data set: self-cleavage kobs at 2500 uM GlcN6P; higher = faster cleavage; RNA array. The note with it: with glucosamine-6-phosphate. Summed up: as §1
On to AUAAAAGCGCCAGAACUACAGAAAUGUAGUUGACGAGGCGGAGGUUUAUCGAAUUCUCGGCGGAUGCCUCCAAA [A39C U56C], for which the “self-cleavage kobs at 2500 uM GlcN6P” value stood at 0.000456 ± 0.00015 s⁻¹.
The same measure, in the same setting: the result for AUAAAAGCGCCAGAAAUACAGAAAUGUAGUUGACGAGGAGGCGGUUUAUCGAAUUUUCGGCGGAUGCCUCUAAA [C16A A42C C71U] reads below 1e-05 s⁻¹.
Same read-out and setting: the result for AUAAAAGCGCCAGAACUACAGAAAUGUAGUUGACGAGGAAGAGGAUUAUCGAAUUUUCGGCGGAUGCCUUCAAA [G40A U45A C70U] reads 7.49e-05 ± 2.1e-05 s⁻¹; that for AUAAAAGCGCCAGAACUACAGAAAUGUAGUUGACGAGGUGGAGGUUUAUCGAAUUUUCGGCGGAUGAUUCCAAA [A39U C67A C68U], 0.000112 ± 3e-05 s⁻¹.
As for AUAAAAGCGCCAGAACUACAGAAAUGUAGUUGACGAGGAGGAAGUUUAUCGAGUUUUCGUCGGAUGCCUCCAAA [G43A A53G G60U], the “self-cleavage kobs at 2500 uM GlcN6P” value was below 1e-05 s⁻¹.
The same measure, in the same setting: with AUAAAAGCGCGAGAACUACAGAAAUGUAGUUGACGAGGCGGAGGUUUAUCGAAUUUUCGGCGGAUGCCUCCAAA [C11G A39C] the figure was below 1e-05 s⁻¹; with AUAAAAGCGCCAUAACUACAGAAAUGUAGUUGACGAUGAAGAGGUUUAUCGAAUUUUCGGCGGAUGCCGCCAAA [G13U G37U G40A U69G], below 1e-05 s⁻¹.
On the same count and under the same terms, the result for AUAAAAGCGCCAGAGAUACAGAAAUGUAGAUGACGAGGAGGAGGUUUAUCGAAUUUUCGGCGGGUGCCUCCAAA [A15G C16A U30A A64G] reads 0.00162 ± 0.00041 s⁻¹; that for AUAAAAGCGCCAGAACUACAGAAAUGUAGUUGACGAGGAGGAAGAUUAUCGAUUUUUCGGCCGUUGCCUCCAAA [G43A U45A A53U G62C A64U], below 1e-05 s⁻¹; that for AUAAAAGCGCAAGAUCUACAGAAAUGUAGUUGACGAGGAGGAGGUUUAUCGAAUUUUCGGCGGCUGCCUCCAAA [C11A A15U A64C], below 1e-05 s⁻¹.

Variants of B1 are the subject of the next data set. Kind of data set: self-cleavage kobs at 10000 uM GlcN6P; higher = faster cleavage; RNA array. The note with it: with glucosamine-6-phosphate. Summed up:
as §1
On to AUAAAAGCGCCAGAACUACAGAAAUGUAGUUGACGAGGCGGAGGUUUAUCGAAUUCUCGGCGGAUGCCUCCAAA [A39C U56C], for which the “self-cleavage kobs at 10000 uM GlcN6P” value was found to be 0.00101 ± 0.00021 s⁻¹.
The same measure, in the same setting: with AUAAAAGCGCGAGAACUACAGAAAUGUAGUUGACGAGGCGGAGGUUUAUCGAAUUUUCGGCGGAUGCCUCCAAA [C11G A39C] the figure was below 1e-05 s⁻¹.
The same measure, in the same setting: the result for AUAAAAGCGCCAUAACUACAGAAAUGUAGUUGACGAUGAAGAGGUUUAUCGAAUUUUCGGCGGAUGCCGCCAAA [G13U G37U G40A U69G] reads below 1e-05 s⁻¹.
